B1: Ay-MTP-1: A. ceylanicum astacin protease antigen, SEQ ID NO: 60 (protein, listed as Ancylostoma ceylanicum)
chain: MRVFLLVLLLAICASAGFFDTKLGEKIKKTLGKIKAALNGTLLMKIREKFIALREKIKAKLKLSPARKALLGEIMKHIIKIKKDKIQEKGDSIEEINSKSAIGELLYQGDIVLTNKQAQEIVDIEGDENDRGKRQAFRDRNYPRTLWSKGVYYYFHGNATPEVRSVFTKGARLWMKDTCIDFFESNSAPDRIRVFKEQGCWSYVGRIGGQQDLSLGKGCESVGTAAHEIGHAIGFYHTHSRHDRDNFITFNAQNVKPDWLDQFTKQTPATNENYGITYDYGSIMHYGANSASANGQPSMVPFDPKYVETLGSPIISFYELLMINKPYECTKNCDPNTSAQCKMGGFPHPRDCGRCICPSGYGGQLCDQKPSGCGSILQATAQYQNLHDKRGNEAAGQRPREDMDFCYYWITAPQGSRIEIKIADLSRGAAVDGCQYWGVEIKTHADQRLTGYRFCAPEDVGRTLVSNSNIVPIITYNFYATTVDIQYRIVGGNVGGPRPQPQPNSNCVDNEQCATLIRTKNFCQSRSFTESVKRGLCPKACGFCR
B2: Ay-ASP-2: A. ceylanicum secreted protein 2, SEQ ID NO: 58; Pichia pastoris expressed (protein, listed as Ancylostoma ceylanicum)
chain: VLVPLLVLLAVSVDANSVRCGNNGMTDEARQKFLDMHNGYRSQVAKGQAKDALSGNAPKAAKMKKMVYDCGVESTAMQNAKKCVFTHSHMKGLGENIWMTTAREMDKVKSAEQASQGWFSELAEYGVGPENKLTMQLWNRPNTQIGHYTQMVWQDTYKLGCYVEWCSSMTYGVCQYSPQGNMMNSIIYEKGNPCTQDSDCGSNARCTADKALCIVHG
B3: Ay-ASP-1: A. ceylanicum secreted protein 1, SEQ ID NO: 56; Pichia pastoris expressed (protein, listed as Ancylostoma ceylanicum)
chain: FSPVVVISVVLTVAFCDASPVKASFGCSNSGITDSDRQAFLDFHNNARRRVAQGVEDNKSGKLNPAKNMYKLDWDCEMEQKLQDAIQSCPGGFAGIQGVAQNIISWSGSGGFPNPSEKINSTLASWWGGAKNNGVASDNKYTGGGLYAFSNMVFSETTKLGCAYKVCGTKLTLSCYNGIGYMTGAPMWETGQACKAGADCTTFKNSGCEDGLCTKGADVPETNQQCPSNTGMTDSVRDTFLSLHNEFRSSVARGLEPDALGGNAPKASKMLKMVYDCEVEASAIRHGNKCVYQHSHGDERPGLGENIYKTSIVKFEKNKAAKQASQLWWNELKEFGVGPSNMLTDAWNRPNMQIGHYTQMAWESTYKLGCAVIFCNDFTFGVCQYGPGGNYMNHLIYTIGQPCSECEATATCSVTEGLCSAP

System: A. ceylanicum
Assay: Hamster vaccine trial Ham V-IV with Quil A, oral challenge with 100 A. ceylanicum L3
Assay type: in vivo, Syrian hamster
Conditions: for Adult Hookworms, Mean: 10 hamsters per group, Quil A control 48.9; for Spleen weights, Median: Quil A control 0.45; for Spleen weights, Mean: Quil A control 0.47; for Adult Hookworms, Median: Quil A control 53.0; for Percent reduction (EPG) relative to Quil A / Percentage Hb Increase Relative to control (QuilA) / Percentage Reduction (adult hookworms) Relative to Quil A: hamster, in vivo; for EPG Mean ± SD: hookworm eggs per gram, two cages per group; for Body Weight % Reduction, Median / Body Weight % Reduction, Mean / Hb % change, Mean / Hb % change, Median: necropsy relative to time of infection; for Body Weight % Reduction, Median: Quil A control 7.8; for Body Weight % Reduction, Mean: Quil A control 7.9; for Hb % change, Mean / Hb % change, Median: minus = decrease; for Hb % change, Mean: Quil A −29.7; for Hb % change, Median: Quil A −32.5
Description: Brief Outline of Study Sections: Purpose bred Syrian hamsters are randomized into eight groups. Seven groups will receive candidate vaccines: ASP-1, ASP-2, MTP, and Irradiated larvae. One group receives only the adjuvant (Quil A) as experimental control. Each animal's specific antibody response is evaluated by direct ELISA using serum taken prior to the infective challenge. […] Quantitative ova counts, used to evaluate worm burden, are made from fecal samples collected twice after larval challenge. Also, hemoglobin levels will be tested to detect anemia caused by the blood loss during adult hookworm infection. The final report will evaluate the data and provide conclusions regarding each vaccine's effectiveness both in terms of worm burden and blood loss.
Test and Control Identification: The antigens are ASP-1, ASP-2, and MTP. The antigen-adjuvant combinations will be ASP-1+Quil A, ASP-2+Quil A, MTP+Quil A, ASP-1+ASP-2+Quil A, ASP-2+MTP+Quil A and ASP-1+MTP+Quil A. One group, which receives irradiated L3 serve as the positive control. The negative control group will receive only Quil A. Details about the antigen and the adjuvants will be included in the study records when they become available.
The test articles are diluted to provide a dose of 0.025 mg of antigen in 200 ul of antigen-adjuvant mixture per animal per injection. All injections will be performed intramuscularly (i.m). The prescribed volume dose information is recorded by Dr. Ghosh. Fresh preparation of antigens will be made the day of injection.
Administration of Test and Control Articles: The vaccines and adjuvant are administered intramuscularly (IM) three (3) times beginning when the hamsters are 28±2 days old. The vaccines are boosted at 21 days (3 weeks) intervals.
Challenge Infection: Ancylostoma ceylanicum larvae are cultured from the eggs collected in the feces of infected hamsters by qualified technicians in the Dr. Hotez lab. All hookworms in the infective challenge are approximately equal age (10±5 days). The species identity of the infective larva dose is validated, using PCR DNA amplification and specific oligonucleotide primers. All hamsters are infected by orally with the same dose of 100+/−10 3rd stage larvae of A. celyanicumfs. Larval challenge occurs on the same day for all hamsters (at age 82±2 days). Clinical Observations: The hamsters are observed daily and are weighed at least every 7 days post-challenge. Hamsters that develop signs of moderate to severe anemia, or develop a loss of body weight greater than 15% are observed more frequently. Prior to larvae infection and at least one time every 7-10 days, blood samples are collected from all hamsters. Blood withdrawal should be approximately equal in amount from all hamsters and at this time, the stool will be checked for blood.
A pre-vaccination blood sample will be examined for Hemoglobin; a sample of serum will be frozen. A hemoglobin test is performed 6-10 days and 12-18 days post-challenge. Samples of serum will be collected from each hamster; pre-immune, after 2 boosts, and after larval challenge. These samples will be labeled with unique identifiers (nature of the specimen, study-hamster number and collection date) and frozen for possible future analysis.
Quantitative Egg Counts (QEC): One week following parasite dosing, fecal examination for ova begins and will be repeated once a week until the study is terminated. The ova count method will be performed according to the SOP, which is a modification of the McMaster technique (Veterinary Clinical Pathology, 6th ed., 1994, page 9-10). The test will be performed the same way each time in order to quantitate the ova count. Fecal specimens from the hamsters will be identified by the hamster study number and the unique hamster identification number. The ova are counted in a McMaster chamber under a binocular microscope and recorded. […]

Molecule | Adult Hookworms, Mean | Spleen weights, Median | Spleen weights, Mean | Adult Hookworms, Median | Percent reduction (EPG) relative to Quil A [%] | Percentage Hb Increase Relative to control (QuilA) [%] | Percentage Reduction (adult hookworms) Relative to Quil A [%] | EPG Mean ± SD | Body Weight % Reduction, Median [%] | Body Weight % Reduction, Mean [%] | Hb % change, Mean [%] | Hb % change, Median [%]
B1 | 35.3 | 0.45 gr | 0.42 gr | 40.0 | 42.7 | 59.9 | 27.8 | 1275.0 ± 777.8 | 5.4 | 4.0 | −3.5 | −11.9
B2 | 33.2 | 0.47 gr | 0.44 gr | 39.5 | 47.2 | 55.2 | 32.1 | 1175.0 ± 176.7 | 4.9 | 4.2 | −9.2 | −13.3
B3 | 30.9 | 0.48 (0.48) ± 0.10 gr | 0.48 (0.48) ± 0.10 gr | 36.0 | 59.0 | 32.7 | 36.8 | 912.5 ± 17.7 | 4.4 | 3.4 | −13.3 | −20.0

— patent US7303752B2, “Hookworm vaccine” (The George Washington University, priority 2001, dated 2007)
